Patent publication US20260217818A1 (Y BIOLOGICS, published 2026)

T1: human claudin-18.2 (claudin-18 spliced variant 2, CLDN18.2) overexpressed on HEK293E/18.2 or CHO-K1/18.2 cells (human, UniProt P56856 1-261)
T1 sequence: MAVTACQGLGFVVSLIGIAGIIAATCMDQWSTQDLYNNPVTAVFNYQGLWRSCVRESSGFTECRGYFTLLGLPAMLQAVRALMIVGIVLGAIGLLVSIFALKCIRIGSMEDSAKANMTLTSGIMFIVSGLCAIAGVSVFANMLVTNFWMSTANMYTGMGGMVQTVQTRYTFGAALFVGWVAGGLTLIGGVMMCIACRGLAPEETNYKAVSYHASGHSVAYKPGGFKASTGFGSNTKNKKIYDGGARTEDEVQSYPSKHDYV

T2: human CLDN18.1 protein (EUPROTEIN, #EPY255141), coated antigen (human, UniProt P56856 1-261, limits assumed)
T2 construct: Bought antigen; also called CLDN18.1 antigen
T2 sequence (looked up): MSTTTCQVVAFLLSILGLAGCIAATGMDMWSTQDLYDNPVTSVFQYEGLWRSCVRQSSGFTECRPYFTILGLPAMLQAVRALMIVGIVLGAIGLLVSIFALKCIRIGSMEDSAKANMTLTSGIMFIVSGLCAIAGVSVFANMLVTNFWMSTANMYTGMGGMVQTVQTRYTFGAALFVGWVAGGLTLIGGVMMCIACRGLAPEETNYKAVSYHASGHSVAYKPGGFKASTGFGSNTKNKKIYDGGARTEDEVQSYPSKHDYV

T3: human CLDN18.2 protein (CUSABIO, #CSB-MP005498HU (A5)), coated antigen (human, UniProt P56856 1-261)
T3 construct: also called CLDN18.2 antigen; CLDN18.2-VLPs antigen
T3 sequence: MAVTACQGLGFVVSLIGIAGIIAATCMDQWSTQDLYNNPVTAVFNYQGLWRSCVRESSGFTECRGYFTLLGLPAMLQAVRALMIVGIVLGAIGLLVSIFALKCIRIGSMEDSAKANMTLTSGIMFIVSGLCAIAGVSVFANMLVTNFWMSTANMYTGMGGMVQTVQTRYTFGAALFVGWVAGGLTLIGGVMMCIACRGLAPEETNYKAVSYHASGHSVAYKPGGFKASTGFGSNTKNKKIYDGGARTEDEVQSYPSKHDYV


Columns and labels:
[1] = biological target: T1, human claudin-18.2 (claudin-18 spliced …); experiment: cell-based or functional assay
[2] = biological target: T2, human CLDN18.1 protein (EUPROTEIN, …); experiment: ELISA, CLDN18.1 coated at 1 µg/mL, serially diluted antibody
Protocol: (§1) CLDN18.1 (EUPROTEIN, #EPY255141) and CLDN18.2 (CUSABIO, #CSB-MP005498HU (A5)) proteins were each prepared at a concentration of 1 μg/mL using a dilution buffer (4% skim milk/0.05% tween-20/PBS), and 100 μL of each was added to individual wells of an immunoassay plate (Thermo, #439454) and incubated statically at 4° C. for more than 16 hours. After three washes with 300 μL of wash buffer (0.05% tween-20/PBS), 200 μL of blocking buffer (4% skim milk/0.05% tween-20/PBS) was added to the wells and incubated for 1 hour at room temperature. After three washes, 100 μL of the anti-CLDN18.2 antibodies, each prepared by serial dilution, was added to each well and incubated at room temperature for 1 hour with rocking. After three washes, 100 μL of anti-human kappa-HRP (Sigma, #A7164) antibody, prepared at dilution ratio of 1:3,000, was added to each well and incubated at room temperature for 1 hour. After three washes, 100 μL of TMB substrate (Sigma, #T0440) was added to each well and incubated in the dark at room temperature, and when color development was observed, 50 μL of stop solution (1N H₂SO₄) was added to stop the reaction. Absorbance was measured using a microplate reader (Promega, GM3000).

[3] = biological target: T3, human CLDN18.2 protein (CUSABIO, …); experiment: ELISA, CLDN18.2 coated at 1 µg/mL, serially diluted antibody
Protocol: as §1

[4] = biological target: T1, human claudin-18.2 (claudin-18 spliced …); experiment: cell-based or functional assay; remark: listed apart in the source

Binder	cellular internalization (IncuCyte FabFluor, HEK293E/18.2 cells) [1] [%]	binding result [2]	binding result [3]	Cell viability (%) at 10 nM, HEK293E/18.2 (Fab-ZAP assay) [4] [%]	IC50 (nM), HEK293E/18.2 (Fab-ZAP assay) [4] [nM]
0058-003 (antibody, V domains shown, scFv clone from a human phage library, converted into IgG form for the experiments; also called anti-CLDN18.2 antibody 0058-003; monoclone 0058-003) VH: QVQLVQSGGGLVQPGGSLRLSCAASGFTFSSYAMSWVRQAPGKGLEWVSAISGSGGSTYYADSVKGRFTISRDNSKNTLYLQMNSLRAEDTAVYYCARGAASSYYFDYWGLGTTVTVSS VL: DIQMTQSPSSLAAYVGDTVTITCRASAGVRNYLAWVQQKPGKAPRSLIYGAFKLQSGVPSRFSGSGSGTEFTLTISSLQPEDFGTYYCQQYHSFPPTFGGGTKVDIK	50	no binding	binds	56	0.04
0058-002 (antibody, V domains shown, scFv clone from a human phage library, converted into IgG form for the experiments; also called anti-CLDN18.2 antibody 0058-002; monoclone 0058-002) VH: QMQLVESGGGLVQPGGSLRLSCAASGFTFSSYAMSWVRQAPGKGLEWVSAISGSGGSTYYADSVKGRFTISRDNSKNTLYLQMNSLRAEDTAVYYCARGLGYYYYGMDVWGQGTTVTVSS VL: DIQMTQSPSSLSASVGDRVTITCRASQTVSSWLAWYQQKPGKAPKLLIYAASSLQSGVPSRFSGSGSGTEFTLTISSLQPEDFGTYYCQQYHSFPPTFGGGTKVGIK	50	no binding	binds	58	0.04
0058-001 (antibody, V domains shown, scFv clone from a human phage library, converted into IgG form for the experiments; also called anti-CLDN18.2 antibody 0058-001; monoclone 0058-001) VH: QVQLVESGGGLVQPGGSLRLSCAASGFTFSSYAMSWVRQAPGKGLEWVAAISGSGGSTYFADSVRGRFTISRDNPQSTLYLQMNSLRAEDTAVYYCAKEGVWWLRYFDHWGQGTPITVSS VL: QSALTQPRSVSGSPGQSVTISCTGTSNDVGGYTYVSWYQQHPGKAPKLMIYDVSKRPSGVPDRFSGSKSGNTASLTISGLQAEDEADYYCSSYAGSYTWVFGGGTKLTVL	50	no binding	binds	76	0.1
